Measured values published in US20210032299A1 (Eli Lilly, published 2021).
Starred links: 1 amine or outer side, 2 acyl side, 3 side chain; linkers in the order of their positions; H or OH if unused. Non-standard residues stand in square brackets, D forms with d. Groups on a side chain read outwards from the residue. No end group written: not given here. *: point of attachment. C20 diacid = O=C(O)CCCCCCCCCCCCCCCCCCC(=O)*; αMePhe(2-F) = C[C@](N)(Cc1ccccc1F)C(=O)O; γGlu = O=C(O)[C@H](CCC(=O)[*:2])N[*:1]; αMeF = C[C@](N)(Cc1ccccc1)C(=O)O; 4Pal = N[C@@H](Cc1ccncc1)C(=O)O; AEEA = NCCOCCOCC(=O)O; Aib = CC(C)(N)C(=O)O

Columns and labels:
human GLP-1 receptor = molecular target: T1, human GLP-1 receptor (human, UniProt P43220 24-463); experiment: SPA, displacement of [125I]-GLP-1 from hGLP-1R membranes, 0.1% bacitracin
T1 construct: whole, on cells; Assayed as crude membranes of stably transfected HEK293 cells; also called hGLP1R; hGLP-1R
Method in brief: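 Binding buffer: 25 mM HEPES pH 7.4, 2.5 mM CaCl₂, 1 mM MgCl₂, 0.1% bacitracin, 0.003% Tween-20, protease inhibitors without EDTA. Four-parameter nonlinear regression; Kᵢ given as geometric mean ± SEM, n = independent replicates run on different days.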

human glucagon receptor = molecular target: T2, human glucagon receptor (human, UniProt P47871 26-477); experiment: SPA, displacement of [125I]-Gcg from hGcgR membranes, 0.1% bacitracin
T2 construct: whole, on cells; Assayed as crude membranes of stably transfected HEK293 cells; also called hGcgR; GcgR
Method in brief: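 Binding buffer: 25 mM HEPES pH 7.4, 2.5 mM CaCl₂, 1 mM MgCl₂, 0.003% Tween-20, protease inhibitors without EDTA. Counted by scintillation after 12 h incubation/settling at room temperature. Four-parameter nonlinear fit; Kᵢ given as geometric mean ± SEM of independent replicates run on different days.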

[1] = molecular target: T3, human glucose-dependent insulinotropic polypeptide (GIP) receptor (human, UniProt P48546 22-466); experiment: SPA, displacement of [125I]-GIP from hGIPR membranes, 0.1% bacitracin
T3 construct: whole, on cells; Assayed as crude membranes of stably transfected CHO cells; also called hGIPR; human GIP receptor
T3 sequence (looked up): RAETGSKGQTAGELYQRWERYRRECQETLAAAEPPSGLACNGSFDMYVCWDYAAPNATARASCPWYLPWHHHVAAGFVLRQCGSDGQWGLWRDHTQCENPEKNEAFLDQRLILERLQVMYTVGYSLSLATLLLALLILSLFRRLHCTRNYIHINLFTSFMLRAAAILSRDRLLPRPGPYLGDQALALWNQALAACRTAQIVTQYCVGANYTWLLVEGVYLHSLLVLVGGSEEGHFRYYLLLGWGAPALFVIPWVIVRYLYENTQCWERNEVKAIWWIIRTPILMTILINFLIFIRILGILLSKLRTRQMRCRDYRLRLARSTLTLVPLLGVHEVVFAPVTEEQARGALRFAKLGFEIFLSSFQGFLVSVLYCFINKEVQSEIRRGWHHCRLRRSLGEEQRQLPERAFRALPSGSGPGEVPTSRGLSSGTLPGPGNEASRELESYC

T2 sequence (P47871 26-477): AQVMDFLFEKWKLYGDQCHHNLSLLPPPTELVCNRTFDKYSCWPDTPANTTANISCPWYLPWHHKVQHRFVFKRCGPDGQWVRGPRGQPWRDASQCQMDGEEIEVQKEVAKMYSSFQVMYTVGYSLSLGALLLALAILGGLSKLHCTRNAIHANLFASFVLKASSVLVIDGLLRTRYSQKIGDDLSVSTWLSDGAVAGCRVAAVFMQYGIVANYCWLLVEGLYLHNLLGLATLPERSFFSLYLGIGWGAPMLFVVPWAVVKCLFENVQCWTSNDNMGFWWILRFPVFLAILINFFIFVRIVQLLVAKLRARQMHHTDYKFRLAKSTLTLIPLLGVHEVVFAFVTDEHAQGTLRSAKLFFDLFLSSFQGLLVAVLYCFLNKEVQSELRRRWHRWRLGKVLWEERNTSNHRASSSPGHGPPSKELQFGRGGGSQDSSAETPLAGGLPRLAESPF

| Binder | Ki (human GLP-1 receptor) | Ki (human glucagon receptor) | Ki [1] |
| --- | --- | --- | --- |
| Y[Aib]EGT[αMePhe(2-F)]ISDYSIALDKK([AEEA-AEEA-γGlu-C20 diacid])HQ[Aib]EFVNYLLATGPSSGAPPPS-NH2 (N-terminus assumed; SMILES CC[C@H](C)[C@H](NC(=O)[C@H](CO)NC(=O)[C@H](Cc1ccc(O)cc1)NC(=O)[C@H](CC(=O)O)NC(=O)[C@H](CO)NC(=O)[C@@H](NC(=O)[C@](C)(Cc1ccccc1F)NC(=O)[C@@H](NC(=O)CNC(=O)[C@H](CCC(=O)O)NC(=O)C(C)(C)NC(=O)[C@@H](N)Cc1ccc(O)cc1)[C@@H](C)O)[C@@H](C)CC)C(=O)N[C@@H](C)C(=O)N[C@@H](CC(C)C)C(=O)N[C@@H](CC(=O)O)C(=O)N[C@@H](CCCCN)C(=O)N[C@@H](CCCCNC(=O)COCCOCCNC(=O)COCCOCCNC(=O)CC[C@H](NC(=O)CCCCCCCCCCCCCCCCCCC(=O)O)C(=O)O)C(=O)N[C@@H](Cc1c[nH]cn1)C(=O)N[C@@H](CCC(N)=O)C(=O)NC(C)(C)C(=O)N[C@@H](CCC(=O)O)C(=O)N[C@@H](Cc1ccccc1)C(=O)N[C@H](C(=O)N[C@@H](CC(N)=O)C(=O)N[C@@H](Cc1ccc(O)cc1)C(=O)N[C@@H](CC(C)C)C(=O)N[C@@H](CC(C)C)C(=O)N[C@@H](C)C(=O)N[C@H](C(=O)NCC(=O)N1CCC[C@H]1C(=O)N[C@@H](CO)C(=O)N[C@@H](CO)C(=O)NCC(=O)N[C@@H](C)C(=O)N1CCC[C@H]1C(=O)N1CCC[C@H]1C(=O)N1CCC[C@H]1C(=O)N[C@@H](CO)C(N)=O)[C@@H](C)O)C(C)C) [Example 34] | 201 nM | 143 nM | 0.034 nM |
| Y[Aib]EGT[αMePhe(2-F)]ISDYSIALDKK([AEEA-AEEA-γGlu-C20 diacid])HQ[Aib]EFVNWLLAGGPSSGAPPPS-NH2 (N-terminus assumed; SMILES CC[C@H](C)[C@H](NC(=O)[C@H](CO)NC(=O)[C@H](Cc1ccc(O)cc1)NC(=O)[C@H](CC(=O)O)NC(=O)[C@H](CO)NC(=O)[C@@H](NC(=O)[C@](C)(Cc1ccccc1F)NC(=O)[C@@H](NC(=O)CNC(=O)[C@H](CCC(=O)O)NC(=O)C(C)(C)NC(=O)[C@@H](N)Cc1ccc(O)cc1)[C@@H](C)O)[C@@H](C)CC)C(=O)N[C@@H](C)C(=O)N[C@@H](CC(C)C)C(=O)N[C@@H](CC(=O)O)C(=O)N[C@@H](CCCCN)C(=O)N[C@@H](CCCCNC(=O)COCCOCCNC(=O)COCCOCCNC(=O)CC[C@H](NC(=O)CCCCCCCCCCCCCCCCCCC(=O)O)C(=O)O)C(=O)N[C@@H](Cc1c[nH]cn1)C(=O)N[C@@H](CCC(N)=O)C(=O)NC(C)(C)C(=O)N[C@@H](CCC(=O)O)C(=O)N[C@@H](Cc1ccccc1)C(=O)N[C@H](C(=O)N[C@@H](CC(N)=O)C(=O)N[C@@H](Cc1c[nH]c2ccccc12)C(=O)N[C@@H](CC(C)C)C(=O)N[C@@H](CC(C)C)C(=O)N[C@@H](C)C(=O)NCC(=O)NCC(=O)N1CCC[C@H]1C(=O)N[C@@H](CO)C(=O)N[C@@H](CO)C(=O)NCC(=O)N[C@@H](C)C(=O)N1CCC[C@H]1C(=O)N1CCC[C@H]1C(=O)N1CCC[C@H]1C(=O)N[C@@H](CO)C(N)=O)C(C)C) [Example 26] | 16.5 nM | 74.1 nM | 0.045 nM |
| Y[Aib]EGT[αMeF]ISDYSIALDKK([AEEA-AEEA-γGlu-C20 diacid])HQ[Aib]EFVNWLLAGGPSSGAPPPS-NH2 (N-terminus assumed; SMILES CC[C@H](C)[C@H](NC(=O)[C@H](CO)NC(=O)[C@H](Cc1ccc(O)cc1)NC(=O)[C@H](CC(=O)O)NC(=O)[C@H](CO)NC(=O)[C@@H](NC(=O)[C@](C)(Cc1ccccc1)NC(=O)[C@@H](NC(=O)CNC(=O)[C@H](CCC(=O)O)NC(=O)C(C)(C)NC(=O)[C@@H](N)Cc1ccc(O)cc1)[C@@H](C)O)[C@@H](C)CC)C(=O)N[C@@H](C)C(=O)N[C@@H](CC(C)C)C(=O)N[C@@H](CC(=O)O)C(=O)N[C@@H](CCCCN)C(=O)N[C@@H](CCCCNC(=O)COCCOCCNC(=O)COCCOCCNC(=O)CC[C@H](NC(=O)CCCCCCCCCCCCCCCCCCC(=O)O)C(=O)O)C(=O)N[C@@H](Cc1c[nH]cn1)C(=O)N[C@@H](CCC(N)=O)C(=O)NC(C)(C)C(=O)N[C@@H](CCC(=O)O)C(=O)N[C@@H](Cc1ccccc1)C(=O)N[C@H](C(=O)N[C@@H](CC(N)=O)C(=O)N[C@@H](Cc1c[nH]c2ccccc12)C(=O)N[C@@H](CC(C)C)C(=O)N[C@@H](CC(C)C)C(=O)N[C@@H](C)C(=O)NCC(=O)NCC(=O)N1CCC[C@H]1C(=O)N[C@@H](CO)C(=O)N[C@@H](CO)C(=O)NCC(=O)N[C@@H](C)C(=O)N1CCC[C@H]1C(=O)N1CCC[C@H]1C(=O)N1CCC[C@H]1C(=O)N[C@@H](CO)C(N)=O)C(C)C) [Example 25] | 15.8 nM | 101 nM | 0.0417 nM |
| Y[Aib]EGT[αMeF]ISDYSIALDKK([AEEA-AEEA-γGlu-C20 diacid])HQ[Aib]DFVE[4Pal]LLEQGPSSGAPPPS-NH2 (N-terminus assumed; SMILES CC[C@H](C)[C@H](NC(=O)[C@H](CO)NC(=O)[C@H](Cc1ccc(O)cc1)NC(=O)[C@H](CC(=O)O)NC(=O)[C@H](CO)NC(=O)[C@@H](NC(=O)[C@](C)(Cc1ccccc1)NC(=O)[C@@H](NC(=O)CNC(=O)[C@H](CCC(=O)O)NC(=O)C(C)(C)NC(=O)[C@@H](N)Cc1ccc(O)cc1)[C@@H](C)O)[C@@H](C)CC)C(=O)N[C@@H](C)C(=O)N[C@@H](CC(C)C)C(=O)N[C@@H](CC(=O)O)C(=O)N[C@@H](CCCCN)C(=O)N[C@@H](CCCCNC(=O)COCCOCCNC(=O)COCCOCCNC(=O)CC[C@H](NC(=O)CCCCCCCCCCCCCCCCCCC(=O)O)C(=O)O)C(=O)N[C@@H](Cc1c[nH]cn1)C(=O)N[C@@H](CCC(N)=O)C(=O)NC(C)(C)C(=O)N[C@@H](CC(=O)O)C(=O)N[C@@H](Cc1ccccc1)C(=O)N[C@H](C(=O)N[C@@H](CCC(=O)O)C(=O)N[C@@H](Cc1ccncc1)C(=O)N[C@@H](CC(C)C)C(=O)N[C@@H](CC(C)C)C(=O)N[C@@H](CCC(=O)O)C(=O)N[C@@H](CCC(N)=O)C(=O)NCC(=O)N1CCC[C@H]1C(=O)N[C@@H](CO)C(=O)N[C@@H](CO)C(=O)NCC(=O)N[C@@H](C)C(=O)N1CCC[C@H]1C(=O)N1CCC[C@H]1C(=O)N1CCC[C@H]1C(=O)N[C@@H](CO)C(N)=O)C(C)C) [Example 42] | 563 nM | 99.1 nM | 0.0392 nM |
| Y[Aib]EGT[αMeF]ISDYSIALDKK([AEEA-AEEA-γGlu-C20 diacid])HQ[Aib]DFVE[4Pal]LLEAGPSSGAPPPS-NH2 (N-terminus assumed; SMILES CC[C@H](C)[C@H](NC(=O)[C@H](CO)NC(=O)[C@H](Cc1ccc(O)cc1)NC(=O)[C@H](CC(=O)O)NC(=O)[C@H](CO)NC(=O)[C@@H](NC(=O)[C@](C)(Cc1ccccc1)NC(=O)[C@@H](NC(=O)CNC(=O)[C@H](CCC(=O)O)NC(=O)C(C)(C)NC(=O)[C@@H](N)Cc1ccc(O)cc1)[C@@H](C)O)[C@@H](C)CC)C(=O)N[C@@H](C)C(=O)N[C@@H](CC(C)C)C(=O)N[C@@H](CC(=O)O)C(=O)N[C@@H](CCCCN)C(=O)N[C@@H](CCCCNC(=O)COCCOCCNC(=O)COCCOCCNC(=O)CC[C@H](NC(=O)CCCCCCCCCCCCCCCCCCC(=O)O)C(=O)O)C(=O)N[C@@H](Cc1c[nH]cn1)C(=O)N[C@@H](CCC(N)=O)C(=O)NC(C)(C)C(=O)N[C@@H](CC(=O)O)C(=O)N[C@@H](Cc1ccccc1)C(=O)N[C@H](C(=O)N[C@@H](CCC(=O)O)C(=O)N[C@@H](Cc1ccncc1)C(=O)N[C@@H](CC(C)C)C(=O)N[C@@H](CC(C)C)C(=O)N[C@@H](CCC(=O)O)C(=O)N[C@@H](C)C(=O)NCC(=O)N1CCC[C@H]1C(=O)N[C@@H](CO)C(=O)N[C@@H](CO)C(=O)NCC(=O)N[C@@H](C)C(=O)N1CCC[C@H]1C(=O)N1CCC[C@H]1C(=O)N1CCC[C@H]1C(=O)N[C@@H](CO)C(N)=O)C(C)C) [Example 43] | 605 nM | 285 nM | 0.0366 nM |
